# Test results published in the supplement of paper PMC10724198.
# ± gives the standard deviation of the averaged measurements.
# Experiments:
# Saccharomyces cerevisiae [1] = assay: protein stability index of tFT-peptide fusion (C-terminal peptide) (PSI (0-1 scale)); higher = more stable (slower turnover); settings: genetic background: wild type; temperature: 30 C
# Saccharomyces cerevisiae [2] = assay: as above
# Protocol: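 MPS profiling in S. cerevisiae of the tFT-X12 degron library: putative degron peptides plus stable controls, 12 aa, fused to the C-terminus of a sfGFP-mCherry timer. Cells are FACS-sorted into 8 mCherry/sfGFP bins and deep-sequenced. PSI runs from 0 (unstable) to 1 (stable). Backgrounds are wild type, das1Δ and doa10Δ at 30 °C, and wild type, das1Δ, cdc34-1 and cdc53-1 at 37 °C; 2-3 technical replicates each.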
# [3] = genetic background: cdc34-1, temperature: 37 C
# [4] = genetic background: cdc53-1, temperature: 37 C
# [5] = genetic background: das1 deletion, temperature: 30 C
# [6] = genetic background: das1 deletion, temperature: 37 C
# [7] = genetic background: doa10 deletion, temperature: 30 C
# [8] = genetic background: wild type, temperature: 30 C
# [9] = genetic background: wild type, temperature: 37 C
# 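Further: PSI is a weighted mean of sequencing reads over stability bins, variants kept only with over 10 reads, mCherry proximal and sfGFP distal, peptide attached via GGGS linker.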
Sequence,protein stability index (Saccharomyces cerevisiae [1]),protein stability index (Saccharomyces cerevisiae [2]; [3]),protein stability index (Saccharomyces cerevisiae [2]; [4]),protein stability index (Saccharomyces cerevisiae [2]; [5]),protein stability index (Saccharomyces cerevisiae [2]; [6]),protein stability index (Saccharomyces cerevisiae [2]; [7]),protein stability index (Saccharomyces cerevisiae [2]; [8]),protein stability index (Saccharomyces cerevisiae [2]; [9])
GFSEGRLTIPVY,0.455 ± 0.047,0.453 ± 0.025,0.4949 ± 0.0041,0.343 ± 0.04,0.5097 ± 0.0018,0.2949 ± 0.0027,0.345 ± 0.06,0.476 ± 0.01
GFVISSCRLFIL,0.337 ± 0.044,0.581 ± 0.052,0.632 ± 0.0072,0.59 ± 0.022,0.669 ± 0.011,0.272 ± 0.021,0.264 ± 0.024,0.3989 ± 0.0031
GFVLLCFCCRTW,0.393 ± 0.004,0.28 ± 0.01,0.421 ± 0.052,0.287 ± 0.032,0.4828 ± 0.0044,0.2477 ± 0.00056,0.277 ± 0.035,0.426 ± 0.03
GGCYAGVAMRLI,0.76 ± 0.015,0.653 ± 0.02,0.729 ± 0.026,0.644 ± 0.021,0.714 ± 0.042,0.632 ± 0.014,0.62 ± 0.027,0.681 ± 0.025
GGGVGVVWVRLG,0.256 ± 0.028,0.429 ± 0.03,0.678 ± 0.035,0.618 ± 0.013,0.72 ± 0.024,0.0905 ± 0.017,0.114 ± 0.014,0.137 ± 0.017
GGLFRWCVWRIV,0.145 ± 0.0086,0.413 ± 0.02,0.5292 ± 0.0032,0.545 ± 0.025,0.6377 ± 0.0015,0.102 ± 0.016,0.102 ± 0.0098,0.172 ± 0.025
GGSWVRCLRTMG,0.312 ± 0.029,0.628 ± 0.019,0.71 ± 0.024,0.614 ± 0.016,0.7097 ± 0.0014,0.17 ± 0.0073,0.158 ± 0.028,0.399 ± 0.032
GGVWLSVVSWVG,0.167 ± 0.021,0.156 ± 0.0086,0.238 ± 0.03,0.0995 ± 0.024,0.256 ± 0.012,0.0676 ± 0.00079,0.0976 ± 0.011,0.244 ± 0.0053
GGWSLFCIVVVV,0.268 ± 0.074,0.111 ± 0.039,0.171 ± 0.0092,0.179 ± 0.029,0.306 ± 0.0031,0.167 ± 0.013,0.173 ± 0.035,0.253 ± 0.0092
GIFVWWFWGCCG,0.399 ± 0.01,0.503 ± 0.016,0.585 ± 0.051,0.38 ± 0.023,0.567 ± 0.03,0.293 ± 0.02,0.321 ± 0.017,0.5283 ± 0.0019
GILILRLILCLF,0.227 ± 0.0044,0.251 ± 0.027,0.302 ± 0.047,0.248 ± 0.033,0.385 ± 0.023,0.171 ± 0.0058,0.189 ± 0.018,0.24 ± 0.012
GILLLLISRVVF,0.371 ± 0.011,0.278 ± 0.032,0.373 ± 0.025,0.229 ± 0.047,0.469 ± 0.0056,0.197 ± 0.039,0.227 ± 0.021,0.413 ± 0.0093
GILVVAASICYV,0.447 ± 0.018,0.451 ± 0.021,0.48 ± 0.02,0.355 ± 0.031,0.52243 ± 0.00038,0.342 ± 0.0088,0.359 ± 0.017,0.488 ± 0.015
GKKKREWKKNRI,0.382 ± 0.021,0.6893 ± 0.00074,0.733 ± 0.0097,0.645 ± 0.022,0.711 ± 0.013,0.217 ± 0.026,0.257 ± 0.041,0.552 ± 0.0071
GLCLFLIGVFSV,0.4425 ± 0.0022,0.224 ± 0.0031,0.313 ± 0.06,0.246 ± 0.039,0.439 ± 0.022,0.2104 ± 0.0019,0.237 ± 0.023,0.381 ± 0.026
GLFAVWVVGVWC,0.212 ± 0.052,0.0437 ± 0.0013,0.137 ± 0.052,0.139 ± 0.031,0.219 ± 0.0058,0.0955 ± 0.013,0.111 ± 0.045,0.202 ± 0.011
GLFLLWWLGWLV,0.422 ± 0.036,0.63 ± 0.011,0.645 ± 0.043,0.468 ± 0.022,0.651 ± 0.023,0.333 ± 0.02,0.376 ± 0.02,0.5187 ± 0.0047
GLFLYCCLVSLL,0.283 ± 0.011,0.192 ± 0.031,0.321 ± 0.0044,0.25 ± 0.025,0.413 ± 0.018,0.191 ± 0.00083,0.193 ± 0.019,0.33 ± 0.0091
GLLLVWAALGFV,0.3431 ± 0.00066,0.343 ± 0.033,0.4444 ± 0.0018,0.28 ± 0.019,0.458 ± 0.006,0.221 ± 0.007,0.251 ± 0.043,0.439 ± 0.0095
